# From paper PMC3178605, “No Interaction of Barrier-to-Autointegration Factor (BAF) with HIV-1 MA, Cone-Rod Homeobox (Crx) or MAN1-C in Absence of DNA” (PLoS ONE, 2011)
# Where no end group is shown, it is not given here.
# T1: MAN1-C (UniProt Q9Y2U8 650-911)
# T1 sequence: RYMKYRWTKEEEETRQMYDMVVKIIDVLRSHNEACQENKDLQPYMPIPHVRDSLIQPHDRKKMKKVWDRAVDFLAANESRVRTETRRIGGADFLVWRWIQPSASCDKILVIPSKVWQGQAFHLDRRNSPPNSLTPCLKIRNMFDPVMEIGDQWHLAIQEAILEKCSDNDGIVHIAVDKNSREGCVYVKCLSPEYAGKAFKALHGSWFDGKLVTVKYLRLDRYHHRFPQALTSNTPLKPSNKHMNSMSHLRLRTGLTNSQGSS
# T2: Barrier-to-autointegration factor (BAF), human, unlabeled (human, UniProt O75531 1-89)
# T2 construct: Barrier-to-autointegration factor (BAF/BANF1), human; Used unlabeled in the NMR experiments; also called BANF1; BAF2 (the dimer); source: cloned and purified as described [12]
# T2 sequence (looked up): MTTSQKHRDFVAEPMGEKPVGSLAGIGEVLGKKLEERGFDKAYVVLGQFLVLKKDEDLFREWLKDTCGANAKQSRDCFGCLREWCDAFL
# Tests used:
# [1] = target: T1, MAN1-C; assay: NMR (1H-15N HSQC); 150 mM NaCl?; NMR: 25 mM potassium phosphate pH 6.5, 2 mM 2-mercaptoethanol, 95% H2O/5% D2O, 200 mM NaCl (Crx samples) or 150 mM NaCl (MAN1-C samples); salt for MA and temperature not given. The pull-down used undefined sonicated salmon sperm DNA (not listed); conditions: protein: recombinant; tags: His6-thioredoxin removed by thrombin; blunt
# [2] = target: T2, Barrier-to-autointegration factor …; assay: NMR titration; 1H-15N HSQC of 50 µM 15N-labeled LEM domain without and with 200 µM unlabeled BAF2; 25 mM potassium phosphate pH 6.5, 200 mM NaCl, 2 mM 2-mercaptoethanol, 27°C; conditions: both partners purified
Binder,binding result [1],binding result [2]
16 mer DNA duplex (dsDNA) DNA 1: CCAGCACAAACACCTG DNA 2: CAGGTGTTTGTGCTGG,binds,
"LEM domain of MAN1 (residues 1-52), 15N-labeled (domain or fragment, UniProt Q9Y2U8 1-52, looked up, also: 15N-labeled, MAN1 (inner nuclear membrane protein), LEM domain, residues 1-52; Uniformly 15N-labeled for NMR; also called MAN1 LEM domain; MAN-1 LEM domain; source: cloned and purified as described [12]) MAAAAASAPQQLSDEELFSQLRRYGLSPGPVTESTRPVYLKKLKKLREEEQQ",,binds
"MDNYADLSDTELTTLLRRYNIPHGPVVGSTRRLYEKKIFEYETQRRR (domain or fragment, UniProt P50402 1-47, looked up, also: 15N-labeled, Emerin, LEM domain, residues 1-47; Uniformly 15N-labeled for NMR; also called Emerin LEM domain; source: cloned and purified as described [12]) [LEM domain of Emerin (residues 1-47), 15N-labeled]",,binds
